Columns and labels:
[1] = Secondary structure change during fibrillation by CD spectroscopy; format: physicochemical; details: 0 to 1440 min, 100 μM peptide, pH 7.4, 25° C., 731 cpm
Protocol: Changes in the secondary structure of hCT and phCT were monitored by CD spectroscopy using a Jasco J-815 spectrometer (JASCO Analytical Instruments, Easton, Md.). […] At predetermined time intervals, samples were withdrawn for CD analysis. CD spectra were recorded in a quartz cuvette with 1 mm pathlength, scanned from 190 nm to 260 nm in the far UV range, at a scan speed of 50 nm/min at 20° C. Each spectrum was reported as an average of three scans.

[2] = Visual inspection of 96-well plates after fibrillation; format: physicochemical; details: after fibrillation in 96-well plates, 24 h
[3] = Fibrillation kinetics by Thioflavin-T (ThioT) fluorescence measurement; format: physicochemical; details: 100 μM peptide
Protocol: The fibrillation kinetics of hCT, rhCT and phCT was monitored by measuring the increase in fluorescence intensity upon thioflavin T (ThioT) binding to peptide fibrils. The ThioT stock solution (2.5 mM) was prepared in di-water and diluted 10-fold with buffer to give a working solution (250 μM). […] The peptide solution was quickly transferred to a 96-well microtiter plate and placed in a Synergy Neo2 Multi-Detection microplate reader (BioTek Instruments, Winooski, Vt.). 5 μL of ThioT working solution (250 μM) was added to 245 μL of peptide solution in each well to give a final ThioT concentration of 5 μM per well. At each time point, six replicate measurements were performed for each sample. Fibrillation was carried out for 12 or 24 h at 25° C. with continuous shaking at 731 cpm. The fluorescence intensity of ThioT was bottom-read at an interval of 10 or 15 min, at excitation and emission wavelengths of 440 nm and 482 nm, respectively.
The ThioT fluorescence data were fitted to the Boltzmann sigmoidal function as given below, using GraphPad Prism version 7.03 (GraphPad Software, La Jolla, Calif.).
where A1 is the minimum signal, A2 is the maximum signal, xo is the time at which the change in signal is 50% (t50) and dx′ is the slope of growth phase.^1 The lag time was determined either by sigmoidal fit to the fibrillation kinetics curve or using onset point determination. In sigmoidal fits, the lag time was determined as xo−2 dx′ using parameters obtained from nonlinear fit of the data to Eq. 1. […] In cases where sigmoid curve fitting could not be achieved, the t50 was estimated from the raw data as the time when the signal intensity reached half of the observed maximum value.

[4] = Fibrillation kinetics by turbidity measurement (UV absorbance at 340 nm); format: physicochemical; details: 100 μM peptide, 731 cpm
Protocol: Fibrillation kinetics of hCT, rhCT and phCT was followed by measuring the increase in solution turbidity due to formation of soluble oligomeric species and insoluble fibrils. […] At each time point, six replicate measurements were performed for each sample. Fibrillation was carried out for 12 or 24 h at 25° C. with continuous shaking at 731 cpm. Solution turbidity was measured by UV absorbance at 340 nm at 10 or 15-min read intervals. The turbidity data was fitted to the Boltzmann sigmoidal function (Eq. 1) and analyzed as described above.

[5] = after 360 min of fibrillation time
[6] = after 1440 min of fibrillation, pepsin digestion
[7] = 20 mM sodium phosphate buffer pH 7.4, 25° C., continuous shaking at 731 cpm, n=6, mean±SD
[8] = 20 mM sodium phosphate buffer pH 7.4, 25° C., n=6, mean±SD

Question: What does the source list for human calcitonin [hCT]?
Answer: change of CD signal during fibrillation [1]: complete loss in signal; deuterium incorporation, fragment 1-8 [5]: 16%; deuterium incorporation, fragment 1-11 [5]: 13%; deuterium incorporation, fragment 12-19 [5]: 22%; percent deuterium uptake, intact level (after 1440 min of fibrillation): 28%; deuterium uptake, fragment 20-32 [6]: 51%; deuterium uptake, fragment 26-32 [6]: 54%; % D (percent deuterium uptake), intact level, Peak II (fibrillation time t=0 min): 68%; deuterium uptake, C-terminal fragments 20-32 and 26-32, initial value (start of fibrillation): ~60%; appearance on visual inspection [2]: solid dense deposits; lag time of fibrillation, ThioT fluorescence [3, 7]: 172 ± 15 min; t50 of fibrillation, ThioT fluorescence [3, 7]: 236 ± 8 min; lag time of fibrillation, ThioT fluorescence ([3]; 20 mM sodium phosphate buffer pH 7.4, 25° C., continuous shaking at 731 cpm, n=6, mean±SD, listed as native hCT): 172 ± 15 min; change in ThioT fluorescence with time ([3]; pH 7.4, 25° C., 731 cpm): an increase in ThioT fluorescence was observed; lag time of fibrillation, turbidity [4, 8]: 198 ± 20 min; t50 of fibrillation, turbidity [4, 8]: 257 ± 15 min; change in turbidity signal ([4]; pH 7.4, 25° C.): An increase in solution turbidity was also observed
